# Source: US20100260668A1 (published 2010)
# Molecular target: T1, DLL4 (DLL4 ECD/His tag, R&D Systems 1506-D4-050) (UniProt Q9NR61 27-529)
# T1 construct: extracellular domain; not shown: His tag
# Experiment: Direct bind ELISA on DLL4; DLL4 domain N-term., HC short, LC long
row,Binder,EC50
1,"DVD461 (DLL4/VEGF DVD-Ig) (bispecific antibody, human IgG1, HC linker short, LC linker long; also called DVD461H; DVD461L) VH: QVQLVQSGAEVKKPGASVKISCKASGYSFTAYYIHWVKQAPGQGLEWIGYISSYNGATNYNQKFKGRVTFTTDTSTSTAYMELRSLRSDDTAVYYCARDYDYDVGMDYWGQGTLVTVSSASTKGPEVQLVESGGGLVQPGGSLRLSCAASGFTISDYWIHWVRQAPGKGLEWVAGITPAGGYTYYADSVKGRFTISADTSKNTAYLQMNSLRAEDTAVYYCARFVFFLPYAMDYWGQGTLVTVSS VL: DIVMTQSPDSLAVSLGERATISCRASESVDNYGISFMKWFQQKPGQPPKLLIYAASNQGSGVPDRFSGSGSGTDFTLTISSLQAEDVAVYYCQQSKEVPWTFGGGTKVEIKRTVAAPSVFIFPPDIQMTQSPSSLSASVGDRVTITCRASQDVSTAVAWYQQKPGKAPKLLIYSASFLYSGVPSRFSGSGSGTDFTLTISSLQPEDFATYYCQQSYTTPPTFGQGTKVEIKR",0.52 nM
2,"DVD507 (DLL4/VEGF DVD-Ig) (bispecific antibody, human IgG1, HC linker short, LC linker long; also called DVD507H; DVD507L) VH: EVQLQQSGPELVKPGASVKMSCKASGYTFTSYVINWVKQKPGQGLEWIGLINPYNDGTKYNEKFKVKATLTSDKSSSTAYMELSSLTSEDSAVYYCASYYYGSRYYFDYWGQGTTLTVSSASTKGPEVQLVESGGGLVQPGGSLRLSCAASGFTISDYWIHWVRQAPGKGLEWVAGITPAGGYTYYADSVKGRFTISADTSKNTAYLQMNSLRAEDTAVYYCARFVFFLPYAMDYWGQGTLVTVSS VL: DIQMTQSSSYLSVSLGGRVTITCKASDHINNWLAWYQQKPGNAPRLLISGATSLETGVPSRFSGSGSGKDYTLSITSLQTEDVATYYCQQYWSIPLTFGAGTKLELKRTVAAPSVFIFPPDIQMTQSPSSLSASVGDRVTITCRASQDVSTAVAWYQQKPGKAPKLLIYSASFLYSGVPSRFSGSGSGTDFTLTISSLQPEDFATYYCQQSYTTPPTFGQGTKVEIKR",0.71 nM
3,"DVD531 (DLL4/VEGF DVD-Ig) (bispecific antibody, human IgG1, HC linker short, LC linker long; also called DVD531H; DVD531L) VH: EVQLQQSGPELEKPGASVKISCKASGYSFTGYNMNWVKQSNGKSLEWIGNIDPYFGGTNYNQKFKGKATLTVDKSSSTAYMQLKSLTSEDSAVYYCARNYDYDGGCFDYWGQGTTLTVSSASTKGPEVQLVESGGGLVQPGGSLRLSCAASGFTISDYWIHWVRQAPGKGLEWVAGITPAGGYTYYADSVKGRFTISADTSKNTAYLQMNSLRAEDTAVYYCARFVFFLPYAMDYWGQGTLVTVSS VL: QAVVTQESALTTSPGETVTLTCRSSTGAVTTSNYANWVQEKPDHLFTGLIGGTNNRAPGVPARFSGSLIGDKAALTITGAQTEDEAIYFCALWYSNHWVFGGGTKLTVLGQPKAAPSVTLFPPDIQMTQSPSSLSASVGDRVTITCRASQDVSTAVAWYQQKPGKAPKLLIYSASFLYSGVPSRFSGSGSGTDFTLTISSLQPEDFATYYCQQSYTTPPTFGQGTKVEIKR",0.57 nM
4,"DVD483 (DLL4/VEGF DVD-Ig) (bispecific antibody, human IgG1, HC linker short, LC linker long; also called DVD483H; DVD483L) VH: EVQLVESGGGLVQPGGSLRLSCAASGFTFTDNWISWVRQAPGKGLEWVGYISPNSGFTYYADSVKGRFTISADTSKNTAYLQMNSLRAEDTAVYYCARDNFGGYFDYWGQGTLVTVSSASTKGPEVQLVESGGGLVQPGGSLRLSCAASGFTISDYWIHWVRQAPGKGLEWVAGITPAGGYTYYADSVKGRFTISADTSKNTAYLQMNSLRAEDTAVYYCARFVFFLPYAMDYWGQGTLVTVSS VL: DIQMTQSPSSLSASVGDRVTITCRASQDVSTAVAWYQQKPGKAPKLLIYSASFLYSGVPSRFSGSGSGTDFTLTISSLQPEDFATTYYCQQSYTGTVTFGQGTKVEIKRTVAAPSVFIFPPDIQMTQSPSSLSASVGDRVTITCRASQDVSTAVAWYQQKPGKAPKLLIYSASFLYSGVPSRFSGSGSGTDFTLTISSLQPEDFATYYCQQSYTTPPTFGQGTKVEIKR",0.63 nM

# Molecular target: T1, DLL4 (DLL4 ECD/His tag, R&D Systems …)
# Experiment: Direct bind ELISA on DLL4; DLL4 domain C-term., HC short, LC long
row,Binder,EC50
1,"DVD532 (VEGF/DLL4 DVD-Ig) (bispecific antibody, human IgG1, HC linker short, LC linker long; also called DVD532H; DVD532L) VH: EVQLVESGGGLVQPGGSLRLSCAASGFTISDYWIHWVRQAPGKGLEWVAGITPAGGYTYYADSVKGRFTISADTSKNTAYLQMNSLRAEDTAVYYCARFVFFLPYAMDYWGQGTLVTVSSASTKGPEVQLQQSGPELEKPGASVKISCKASGYSFTGYNMNWVKQSNGKSLEWIGNIDPYFGGTNYNQKFKGKATLTVDKSSSTAYMQLKSLTSEDSAVYYCARNYDYDGGCFDYWGQGTTLTVSS VL: DIQMTQSPSSLSASVGDRVTITCRASQDVSTAVAWYQQKPGKAPKLLIYSASFLYSGVPSRFSGSGSGTDFTLTISSLQPEDFATYYCQQSYTTPPTFGQGTKVEIKRTVAAPSVFIFPPQAVVTQESALTTSPGETVTLTCRSSTGAVTTSNYANWVQEKPDHLFTGLIGGTNNRAPGVPARFSGSLIGDKAALTITGAQTEDEAIYFCALWYSNHWVFGGGTKLTVLG",1.43 nM
2,"DVD462 (VEGF/DLL4 DVD-Ig) (bispecific antibody, human IgG1, HC linker short, LC linker long; also called DVD462H; DVD462L) VH: EVQLVESGGGLVQPGGSLRLSCAASGFTISDYWIHWVRQAPGKGLEWVAGITPAGGYTYYADSVKGRFTISADTSKNTAYLQMNSLRAEDTAVYYCARFVFFLPYAMDYWGQGTLVTVSSASTKGPQVQLVQSGAEVKKPGASVKISCKASGYSFTAYYIHWVKQAPGQGLEWIGYISSYNGATNYNQKFKGRVTFTTDTSTSTAYMELRSLRSDDTAVYYCARDYDYDVGMDYWGQGTLVTVSS VL: DIQMTQSPSSLSASVGDRVTITCRASQDVSTAVAWYQQKPGKAPKLLIYSASFLYSGVPSRFSGSGSGTDFTLTISSLQPEDFATYYCQQSYTTPPTFGQGTKVEIKRTVAAPSVFIFPPDIVMTQSPDSLAVSLGERATISCRASESVDNYGISFMKWFQQKPGQPPKLLIYAASNQGSGVPDRFSGSGSGTDFTLTISSLQAEDVAVYYCQQSKEVPWTFGGGTKVEIKR",7.99 nM
3,"DVD484 (VEGF/DLL4 DVD-Ig) (bispecific antibody, human IgG1, HC linker short, LC linker long; also called DVD484H; DVD484L) VH: EVQLVESGGGLVQPGGSLRLSCAASGFTISDYWIHWVRQAPGKGLEWVAGITPAGGYTYYADSVKGRFTISADTSKNTAYLQMNSLRAEDTAVYYCARFVFFLPYAMDYWGQGTLVTVSSASTKGPEVQLVESGGGLVQPGGSLRLSCAASGFTFTDNWISWVRQAPGKGLEWVGYISPNSGFTYYADSVKGRFTISADTSKNTAYLQMNSLRAEDTAVYYCARDNFGGYFDYWGQGTLVTVSS VL: DIQMTQSPSSLSASVGDRVTITCRASQDVSTAVAWYQQKPGKAPKLLIYSASFLYSGVPSRFSGSGSGTDFTLTISSLQPEDFATYYCQQSYTTPPTFGQGTKVEIKRTVAAPSVFIFPPDIQMTQSPSSLSASVGDRVTITCRASQDVSTAVAWYQQKPGKAPKLLIYSASFLYSGVPSRFSGSGSGTDFTLTISSLQPEDFATTYYCQQSYTGTVTFGQGTKVEIKR",1.75 nM

# Molecular target: T1, DLL4 (DLL4 ECD/His tag, R&D Systems …)
# Experiment: Direct bind ELISA on DLL4; DLL4 domain C-term., HC long, LC short
row,EC50,Binder
1,2.53 nM,"DVD478 (VEGF/DLL4 DVD-Ig) (bispecific antibody, human IgG1, HC linker long, LC linker short; also called DVD478H; DVD478L) VH: EVQLVESGGGLVQPGGSLRLSCAASGFTISDYWIHWVRQAPGKGLEWVAGITPAGGYTYYADSVKGRFTISADTSKNTAYLQMNSLRAEDTAVYYCARFVFFLPYAMDYWGQGTLVTVSSASTKGPSVFPLAPEVQLVESGGGLVQPGGSLRLSCAASGFTFTDNWISWVRQAPGKGLEWVGYISPNSGFTYYADSVKGRFTISADTSKNTAYLQMNSLRAEDTAVYYCARDNFGGYFDYWGQGTLVTVSS VL: DIQMTQSPSSLSASVGDRVTITCRASQDVSTAVAWYQQKPGKAPKLLIYSASFLYSGVPSRFSGSGSGTDFTLTISSLQPEDFATYYCQQSYTTPPTFGQGTKVEIKRTVAAPDIQMTQSPSSLSASVGDRVTITCRASQDVSTAVAWYQQKPGKAPKLLIYSASFLYSGVPSRFSGSGSGTDFTLTISSLQPEDFATTYYCQQSYTGTVTFGQGTKVEIKR"
2,2.48 nM,"DVD456 (VEGF/DLL4 DVD-Ig) (bispecific antibody, human IgG1, HC linker long, LC linker short; also called DVD456H; DVD456L) VH: EVQLVESGGGLVQPGGSLRLSCAASGFTISDYWIHWVRQAPGKGLEWVAGITPAGGYTYYADSVKGRFTISADTSKNTAYLQMNSLRAEDTAVYYCARFVFFLPYAMDYWGQGTLVTVSSASTKGPSVFPLAPQVQLVQSGAEVKKPGASVKISCKASGYSFTAYYIHWVKQAPGQGLEWIGYISSYNGATNYNQKFKGRVTFTTDTSTSTAYMELRSLRSDDTAVYYCARDYDYDVGMDYWGQGTLVTVSS VL: DIQMTQSPSSLSASVGDRVTITCRASQDVSTAVAWYQQKPGKAPKLLIYSASFLYSGVPSRFSGSGSGTDFTLTISSLQPEDFATYYCQQSYTTPPTFGQGTKVEIKRTVAAPDIVMTQSPDSLAVSLGERATISCRASESVDNYGISFMKWFQQKPGQPPKLLIYAASNQGSGVPDRFSGSGSGTDFTLTISSLQAEDVAVYYCQQSKEVPWTFGGGTKVEIKR"
3,3.17 nM,"DVD502 (VEGF/DLL4 DVD-Ig) (bispecific antibody, human IgG1, HC linker long, LC linker short; also called DVD502H; DVD502L) VH: EVQLVESGGGLVQPGGSLRLSCAASGFTISDYWIHWVRQAPGKGLEWVAGITPAGGYTYYADSVKGRFTISADTSKNTAYLQMNSLRAEDTAVYYCARFVFFLPYAMDYWGQGTLVTVSSASTKGPSVFPLAPEVQLQQSGPELVKPGASVKMSCKASGYTFTSYVINWVKQKPGQGLEWIGLINPYNDGTKYNEKFKVKATLTSDKSSSTAYMELSSLTSEDSAVYYCASYYYGSRYYFDYWGQGTTLTVSS VL: DIQMTQSPSSLSASVGDRVTITCRASQDVSTAVAWYQQKPGKAPKLLIYSASFLYSGVPSRFSGSGSGTDFTLTISSLQPEDFATYYCQQSYTTPPTFGQGTKVEIKRTVAAPDIQMTQSSSYLSVSLGGRVTITCKASDHINNWLAWYQQKPGNAPRLLISGATSLETGVPSRFSGSGSGKDYTLSITSLQTEDVATYYCQQYWSIPLTFGAGTKLELKR"
4,1.57 nM,"DVD526 (VEGF/DLL4 DVD-Ig) (bispecific antibody, human IgG1, HC linker long, LC linker short; also called DVD526H; DVD526L) VH: EVQLVESGGGLVQPGGSLRLSCAASGFTISDYWIHWVRQAPGKGLEWVAGITPAGGYTYYADSVKGRFTISADTSKNTAYLQMNSLRAEDTAVYYCARFVFFLPYAMDYWGQGTLVTVSSASTKGPSVFPLAPEVQLQQSGPELEKPGASVKISCKASGYSFTGYNMNWVKQSNGKSLEWIGNIDPYFGGTNYNQKFKGKATLTVDKSSSTAYMQLKSLTSEDSAVYYCARNYDYDGGCFDYWGQGTTLTVSS VL: DIQMTQSPSSLSASVGDRVTITCRASQDVSTAVAWYQQKPGKAPKLLIYSASFLYSGVPSRFSGSGSGTDFTLTISSLQPEDFATYYCQQSYTTPPTFGQGTKVEIKRTVAAPQAVVTQESALTTSPGETVTLTCRSSTGAVTTSNYANWVQEKPDHLFTGLIGGTNNRAPGVPARFSGSLIGDKAALTITGAQTEDEAIYFCALWYSNHWVFGGGTKLTVLG"
